Laboratory results reported in patent US20130171156.
Where a chain is given by its changes, count along the chain named.

B1: “converted” BMP-1-3 protein (protein)
chain: AATSRPERVWPDGVIPFVIGGNFTGSQRAVFRQAMRHWEKHTCVTFLERTDEDSYIVFTYRPCGCCSYVGRRGGGPQAISIGKNCDKFGIVVHELGHVVGFWHEHTRPDRDRHVSIVRENIQPGQEYNFLKMEPQEVESLGETYDFDSIMHYARNTFSRGIFLDTIVPKYEVNGVKPPIGQRTRLSKGDIAQARKLYKCPACGETLQDSTGNFSSPEYPNGYSAHMHCVWRISVTPGEKIILNFTSLDLYRSRLCWYDYVEVRDGFWRKAPLRGRFCGSKLPEPIVSTDSRLWVEFRSSSNWVGKGFFAVYEAICGGDVKKDYGHIQSPNYPDDYRPSKVCIWRIQVSEGFHVGLTFQSFEIERHDSCAYDYLEVRDGHSESSTLIGRYCGYEKPDDIKSTSSRLWLKFVSDGSINKAGFAVNFFKEVDECSRPNRGGCEQRCLNTLGSYKCSCDPGYELAPDKRRCEAACGGFLTKLNGSITSPGWPKEYPPNKNCIWQLVAPTQYRISLQFDFFETEGNDVCKYDFVEVRSGLTADSKLHGKFCGSEKPEVITSQYNNMRVEFKSDNTVSKKGFKAHFFSDKDECSKDNGGCQQDCVNTFGSYECQCRSGFVLHDNKHDCKEAGCDHKVTSTSGTITSPNWPDKYPSKKECTWAISSTPGHRVKLTFMEMDIESQPECAYDHLEVFDGRDAKAPVLGRFCGSKKPEPVLATGSRMFLRFYSDNSVQRKGFQASHATECGGQVRADVKTKDLYSHAQFGDNNYPGGVDCEWVIVAEEGYGVELVFQTFEVEEETDCGYDYMELFDGYDSTAPRLGRYCGSGPPEEVYSAGDSVLVKFHSDDTITKKGFHLRYTSTKFQDTLHSRK
B2: placental BMP-1-3 protein (protein)
chain: B1 chain with L373Q

Assays:
[1] = biological target: type IV collagen
[2] = biological target: calmodulin, P0DP23

Row | Protein | in vitro processing (enzyme activity) [1] | in vitro processing (enzyme activity) [2]
1 | B1 | which properties were not exhibited with the “converted” BMP-1-3 protein | which properties were not exhibited with the “converted” BMP-1-3 protein
2 | B2 | processed calmodulin and type IV collagen | processed calmodulin and type IV collagen
